Results from US7256011.

System: PL-FXa-b2AR fusion protein (ED - Factor Xa cleavage site - beta2-adrenergic receptor) on HEK293 transient transfectant cells

Factor Xa
EFC activity (relative luminescent units, RLU): a difference in about 30,000 RLUs was observed over a range in concentration of FXa of about 10^-3 to 10^1 ug/mL
